Measurements published in PMC9482650, “Quantitative fragmentomics allow affinity mapping of interactomes” (Nature Communications, 2022).

Experiments:
Experiment in all cases: holdup assay
Design in all cases: key: below the threshold = too weak to quantify, mostly under pKd 3.1 to 4
SNTA1, Q13424 = target: T1, SNTA1, Q13424
T1 sequence (Q13424 82-180, limits assumed, looked up): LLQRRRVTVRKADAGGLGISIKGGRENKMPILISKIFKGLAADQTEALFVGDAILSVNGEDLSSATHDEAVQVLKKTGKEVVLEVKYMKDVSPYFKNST

DLG3_1, Q92796 = target: T2, DLG3_1, Q92796
T2 sequence (Q92796 125-227, limits assumed, looked up): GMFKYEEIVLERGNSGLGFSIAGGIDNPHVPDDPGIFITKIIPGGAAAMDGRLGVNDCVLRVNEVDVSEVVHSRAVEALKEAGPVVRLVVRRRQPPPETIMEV

SCRIB_1, Q14160 = target: SCRIB_1, Q14160
Chain of SCRIB_1, Q14160 (Q14160 718-814): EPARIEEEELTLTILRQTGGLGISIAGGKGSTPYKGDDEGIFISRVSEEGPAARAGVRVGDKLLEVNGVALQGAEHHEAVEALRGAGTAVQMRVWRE

GRASP, Q7Z6J2 = target: GRASP, Q7Z6J2
Chain of GRASP, Q7Z6J2 (Q7Z6J2 96-193): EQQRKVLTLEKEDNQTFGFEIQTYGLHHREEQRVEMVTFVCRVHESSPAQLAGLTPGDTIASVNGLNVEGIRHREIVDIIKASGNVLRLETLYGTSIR

IL16_4, Q14005 = target: IL16_4, Q14005
Chain of IL16_4, Q14005 (Q14005 1229-1329): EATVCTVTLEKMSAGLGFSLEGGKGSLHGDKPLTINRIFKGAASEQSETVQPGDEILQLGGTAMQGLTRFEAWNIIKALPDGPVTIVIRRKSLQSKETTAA

TJP3_3, O95049 = target: T3, TJP3_3, O95049
T3 sequence (O95049 375-456, limits assumed, looked up): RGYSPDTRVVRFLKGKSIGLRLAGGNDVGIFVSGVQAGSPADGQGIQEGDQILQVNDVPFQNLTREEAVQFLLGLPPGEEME

DLG5_1, Q8TDM6 = target: DLG5_1, Q8TDM6
Chain of DLG5_1, Q8TDM6 (Q8TDM6 617-713): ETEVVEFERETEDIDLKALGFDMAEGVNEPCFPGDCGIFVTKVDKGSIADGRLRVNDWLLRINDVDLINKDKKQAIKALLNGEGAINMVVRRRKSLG

SHANK1, Q9Y566 = target: T4, SHANK1, Q9Y566
T4 sequence (Q9Y566 658-767, limits assumed, looked up): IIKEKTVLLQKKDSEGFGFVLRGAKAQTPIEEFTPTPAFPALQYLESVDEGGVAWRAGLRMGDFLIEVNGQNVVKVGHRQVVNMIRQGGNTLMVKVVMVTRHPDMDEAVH

SNTG1, Q9NSN8 = target: T5, SNTG1, Q9NSN8
T5 sequence (Q9NSN8 52-150, limits assumed, looked up): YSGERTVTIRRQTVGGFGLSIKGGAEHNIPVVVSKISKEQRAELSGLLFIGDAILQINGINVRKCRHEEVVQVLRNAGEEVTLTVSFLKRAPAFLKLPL

APBA2_1, Q99767 = target: T6, APBA2_1, Q99767
T6 sequence (Q99767 563-664, limits assumed, looked up): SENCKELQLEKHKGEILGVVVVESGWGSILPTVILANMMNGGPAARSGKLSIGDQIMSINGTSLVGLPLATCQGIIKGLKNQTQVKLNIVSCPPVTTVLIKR

GRID2IP_1, A4D2P6 = target: GRID2IP_1, A4D2P6
Chain of GRID2IP_1, A4D2P6 (A4D2P6 1-87): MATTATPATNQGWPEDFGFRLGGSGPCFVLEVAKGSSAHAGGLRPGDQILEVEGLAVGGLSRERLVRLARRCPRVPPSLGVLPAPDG

MAST2, Q6P0Q8 = target: MAST2, Q6P0Q8
Chain of MAST2, Q6P0Q8 (Q6P0Q8 1099-1202): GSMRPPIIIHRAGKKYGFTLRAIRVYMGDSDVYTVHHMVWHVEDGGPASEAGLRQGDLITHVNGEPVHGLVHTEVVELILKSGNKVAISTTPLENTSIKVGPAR

RHPN1, Q8TCX5 = target: T7, RHPN1, Q8TCX5
T7 sequence (Q8TCX5 508-602, limits assumed, looked up): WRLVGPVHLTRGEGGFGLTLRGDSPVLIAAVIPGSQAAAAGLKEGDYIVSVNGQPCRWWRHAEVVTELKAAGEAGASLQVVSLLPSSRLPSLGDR

FRMPD3, Q5JV73 = target: FRMPD3, Q5JV73
Chain of FRMPD3, Q5JV73 (Q5JV73 12-100): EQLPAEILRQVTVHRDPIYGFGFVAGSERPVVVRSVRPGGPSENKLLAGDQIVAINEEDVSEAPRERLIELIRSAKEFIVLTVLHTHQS

ARHGEF12, Q9NZN5-2 = target: ARHGEF12, Q9NZN5-2
Chain of ARHGEF12, Q9NZN5-2 (Q9NZN5 other isoform, or with tags, fused parts or gaps): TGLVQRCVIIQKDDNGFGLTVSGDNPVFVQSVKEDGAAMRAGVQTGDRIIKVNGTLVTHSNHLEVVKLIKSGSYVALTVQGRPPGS

DLG3_2, Q92796 = target: T8, DLG3_2, Q92796
T8 sequence (Q92796 221-321, limits assumed, looked up): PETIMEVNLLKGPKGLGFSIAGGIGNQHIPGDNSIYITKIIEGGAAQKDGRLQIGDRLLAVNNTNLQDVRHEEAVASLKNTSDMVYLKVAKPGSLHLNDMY

LIMK2, P53671 = target: LIMK2, P53671
Chain of LIMK2, P53671 (P53671 143-248): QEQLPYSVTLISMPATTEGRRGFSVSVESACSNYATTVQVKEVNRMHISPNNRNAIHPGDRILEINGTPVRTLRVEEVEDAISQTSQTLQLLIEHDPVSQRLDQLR

GOPC, Q9HD26 = target: GOPC, Q9HD26
PDZRN4_1, Q6ZMN7 = target: PDZRN4_1, Q6ZMN7
Chain of PDZRN4_1, Q6ZMN7 (Q6ZMN7 213-318): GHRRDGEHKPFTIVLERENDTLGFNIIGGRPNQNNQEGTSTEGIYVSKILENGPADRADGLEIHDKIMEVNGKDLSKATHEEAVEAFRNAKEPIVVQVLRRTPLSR

SYNJ2BP, P57105 = target: T9, SYNJ2BP, P57105
T9 sequence (P57105 8-110, limits assumed, looked up): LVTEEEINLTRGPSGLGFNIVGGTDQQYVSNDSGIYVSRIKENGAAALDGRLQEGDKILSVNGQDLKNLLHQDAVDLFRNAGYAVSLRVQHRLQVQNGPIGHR

CASK, O14936 = target: CASK, O14936
Chain of CASK, O14936 (O14936 487-570): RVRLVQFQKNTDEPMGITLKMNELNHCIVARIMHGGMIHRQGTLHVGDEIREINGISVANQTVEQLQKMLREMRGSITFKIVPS

NHERF4_1, Q86UT5-2 = target: NHERF4_1, Q86UT5-2
Chain of NHERF4_1, Q86UT5-2 (Q86UT5 other isoform, or with tags, fused parts or gaps): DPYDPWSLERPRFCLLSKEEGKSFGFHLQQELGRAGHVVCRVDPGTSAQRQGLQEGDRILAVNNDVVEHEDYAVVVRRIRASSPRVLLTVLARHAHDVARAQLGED

MPDZ_10, O75970 = target: T10, MPDZ_10, O75970
T10 sequence (O75970 1624-1722, limits assumed, looked up): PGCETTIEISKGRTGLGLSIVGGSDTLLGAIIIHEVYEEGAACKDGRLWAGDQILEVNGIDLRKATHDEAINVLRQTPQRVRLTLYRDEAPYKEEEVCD

TX1BP3, O14907 = target: T11, TX1BP3, O14907
T11 sequence (O14907 10-122, limits assumed, looked up): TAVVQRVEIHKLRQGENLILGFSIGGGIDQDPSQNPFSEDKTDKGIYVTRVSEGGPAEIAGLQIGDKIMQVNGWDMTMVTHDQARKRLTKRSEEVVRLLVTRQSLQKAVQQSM

MAGI1_2, Q96QZ7 = target: MAGI1_2, Q96QZ7
Chain of MAGI1_2, Q96QZ7 (Q96QZ7 456-580): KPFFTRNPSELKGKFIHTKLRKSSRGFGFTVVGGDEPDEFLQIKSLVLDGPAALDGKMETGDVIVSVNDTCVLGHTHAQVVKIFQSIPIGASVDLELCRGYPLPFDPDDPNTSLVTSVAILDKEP

NHERF3_1, Q5T2W1 = target: T12, NHERF3_1, Q5T2W1
T12 sequence (Q5T2W1 4-100, limits assumed, looked up): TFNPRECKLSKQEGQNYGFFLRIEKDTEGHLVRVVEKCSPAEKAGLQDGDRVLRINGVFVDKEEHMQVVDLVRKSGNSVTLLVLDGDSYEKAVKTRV

[1] = modified: phospho on S at position -3 from the C-terminal residue
[2] = plain residues with an end cap or a label only (N-terminal biotin on a linker: ado-ado)

In the case of RRVRKLPSTTL [RPS6KA1_-3P, Q15418], the pKd (SNTA1, Q13424; [1]) is reported as 4.4, the pKd (DLG3_1, Q92796; [1]) is reported as “below the threshold” and the pKd (SCRIB_1, Q14160; [1]) is reported as 4.07. For the same binder, the pKd (GRASP, Q7Z6J2; [1]) was “below the threshold”, the pKd (IL16_4, Q14005; [1]) was “below the threshold” and the pKd (TJP3_3, O95049; [1]) was “below the threshold”. The pKd (DLG5_1, Q8TDM6; [1]) was “below the threshold”, the pKd (SHANK1, Q9Y566; [1]) was “below the threshold” and the pKd (SNTG1, Q9NSN8; [1]) was 3.94. For the same binder, the pKd (APBA2_1, Q99767; [1]) was “below the threshold”, the pKd (GRID2IP_1, A4D2P6; [1]) was “below the threshold” and the pKd (MAST2, Q6P0Q8; [1]) was 4.21. The pKd (RHPN1, Q8TCX5; [1]) was 4.34, the pKd (FRMPD3, Q5JV73; [1]) was “below the threshold” and the pKd (ARHGEF12, Q9NZN5-2; [1]) was 3.79. The pKd (DLG3_2, Q92796; [1]) was “below the threshold”, the pKd (LIMK2, P53671; [1]) was “below the threshold” and the pKd (GOPC, Q9HD26; [1]) was “below the threshold”. For the same binder, the pKd (PDZRN4_1, Q6ZMN7; [1]) was 3.98, the pKd (SYNJ2BP, P57105; [1]) was 4.48 and the pKd (CASK, O14936; [1]) was “below the threshold”. The pKd (NHERF4_1, Q86UT5-2; [1]) was “below the threshold”, the pKd (MPDZ_10, O75970; [1]) was “below the threshold” and the pKd (TX1BP3, O14907; [1]) was “below the threshold”. For the same binder, the pKd (MAGI1_2, Q96QZ7; [1]) was “below the threshold” and the pKd (NHERF3_1, Q5T2W1; [1]) was “below the threshold”.

LETREPTNTL [GRIP1, Q9Y3R0] was tested, and the pKd (SNTA1, Q13424; [2]) was “below the threshold”, the pKd (DLG3_1, Q92796; [2]) was “below the threshold” and the pKd (SCRIB_1, Q14160; [2]) was “below the threshold”. The pKd (GRASP, Q7Z6J2; [2]) was “below the threshold”, the pKd (IL16_4, Q14005; [2]) was “below the threshold” and the pKd (TJP3_3, O95049; [2]) was “below the threshold”. The pKd (DLG5_1, Q8TDM6; [2]) was “below the threshold”, the pKd (SHANK1, Q9Y566; [2]) was “below the threshold” and the pKd (SNTG1, Q9NSN8; [2]) was “below the threshold”. For the same binder, the pKd (APBA2_1, Q99767; [2]) was “below the threshold”, the pKd (GRID2IP_1, A4D2P6; [2]) was “below the threshold” and the pKd (MAST2, Q6P0Q8; [2]) was 3.92. The pKd (RHPN1, Q8TCX5; [2]) was “below the threshold”, the pKd (FRMPD3, Q5JV73; [2]) was “below the threshold” and the pKd (ARHGEF12, Q9NZN5-2; [2]) was “below the threshold”. For the same binder, the pKd (DLG3_2, Q92796; [2]) was “below the threshold”, the pKd (LIMK2, P53671; [2]) was “below the threshold” and the pKd (GOPC, Q9HD26; [2]) was “below the threshold”. The pKd (PDZRN4_1, Q6ZMN7; [2]) was “below the threshold”, the pKd (SYNJ2BP, P57105; [2]) was “below the threshold” and the pKd (CASK, O14936; [2]) was “below the threshold”. For the same binder, the pKd (NHERF4_1, Q86UT5-2; [2]) was “below the threshold”, the pKd (MPDZ_10, O75970; [2]) was “below the threshold” and the pKd (TX1BP3, O14907; [2]) was “below the threshold”. The pKd (MAGI1_2, Q96QZ7; [2]) was “below the threshold” and the pKd (NHERF3_1, Q5T2W1; [2]) was “below the threshold”.
